Reference: article PMC11901838

Target: Human thyroid-stimulating hormone receptor (human) (UniProt P16473)
Chain of UniProt P16473 (P16473 21-764): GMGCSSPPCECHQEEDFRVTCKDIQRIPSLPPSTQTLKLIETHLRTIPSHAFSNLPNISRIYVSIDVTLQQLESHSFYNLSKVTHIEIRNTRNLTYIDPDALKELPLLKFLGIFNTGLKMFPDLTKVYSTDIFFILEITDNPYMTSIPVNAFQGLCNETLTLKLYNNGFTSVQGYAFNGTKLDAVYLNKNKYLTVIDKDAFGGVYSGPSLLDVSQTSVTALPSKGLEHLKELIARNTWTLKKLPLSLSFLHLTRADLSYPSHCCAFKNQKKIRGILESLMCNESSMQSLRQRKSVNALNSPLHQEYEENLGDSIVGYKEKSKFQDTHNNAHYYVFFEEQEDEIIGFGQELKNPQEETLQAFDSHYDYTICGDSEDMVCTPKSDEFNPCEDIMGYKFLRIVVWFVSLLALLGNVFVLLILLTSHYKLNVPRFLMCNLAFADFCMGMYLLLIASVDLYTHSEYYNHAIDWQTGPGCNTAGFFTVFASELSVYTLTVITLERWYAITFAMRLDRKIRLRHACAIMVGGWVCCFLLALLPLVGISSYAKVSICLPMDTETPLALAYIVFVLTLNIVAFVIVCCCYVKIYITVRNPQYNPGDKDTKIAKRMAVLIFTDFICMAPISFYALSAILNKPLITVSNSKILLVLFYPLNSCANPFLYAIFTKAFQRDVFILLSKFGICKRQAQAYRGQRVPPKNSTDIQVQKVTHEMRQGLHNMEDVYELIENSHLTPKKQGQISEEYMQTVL

With “Recombinant human thyroid-stimulating hormone (from UniProt P01215 25-116; P01222 21-132) (ligand)” the EC50 of the NFAT-driven luciferase reporter (RLU) in HEK293-TSHR/NFAT-Luc cells seeded at 0.8 × 10^5 cells/mL, serially diluted rhTSH was 0.32.
